Test results as given in US8563700B2, “Synergistic effects” (ImmunoGen, Inc., priority 2008, dated 2013).

Experiments:
Format in all cases: in vivo
[1] = system: OPM2 human multiple myeloma cells; assay: huN901-DM1 and lenalidomide in established subcutaneous OPM2 multiple myeloma xenografts; settings: combination same doses; for LCK / T/C: SCID mice, lenalidomide 100 mg/kg i.p. days 16-20, 23-27; for LCK: huN901-DM1 200 μg/kg i.v. day 16; for T/C: huN901-DM1 200 μg/kg i.v. single injection day 16
Procedure: (§1) Mice were inoculated with human multiple myeloma tumor cell lines and allowed to become established (average tumor size of about 100 mm^3) prior to treatment. Conjugate dosing is described based on DM1 concentration. Efficacy is reported as both the % of tumor growth for treated vs. control (% T/C) and log cell kill (LCK) determined from the tumor doubling time and the tumor growth delay due to the treatment.
The anti-tumor effect of a combination of huN901-DM1 and lenalidomide was evaluated in an established subcutaneous xenograft model of multiple myeloma. SCID mice (20 animals) were inoculated with OPM2 human multiple myeloma cells (1×10^7 cells/animal) injected subcutaneously into the right shoulder of the mice. When the tumors reached about 130 mm^3 in size (16 days after tumor cell inoculation), the mice were randomly divided into four groups (5 animals per group). One group of mice was treated with the single agent huN901-DM1 (200 μg/kg, day 16 post tumor cell inoculation) administered intravenously. […] A third group was treated with a combination of huN901-DM1 plus lenalidomide using the same doses, schedules and administration routes used for single agent treated groups. A control group of animals received PBS administered intravenously (day 16 post tumor cell inoculation). Tumor growth was monitored by measuring tumor size twice per week. Tumor size was calculated with the formula: length×width×height×½.

[2] = system: MOLP-8 human multiple myeloma cells; assay: huN901-DM1 and thalidomide in established subcutaneous MOLP-8 multiple myeloma xenografts; settings: SCID mice; huN901-DM1 100 μg/kg, thalidomide 200 mg/kg, as single agents or combined
From the text: as §1
(§2) Tumor growth was monitored by measuring tumor size twice per week. Tumor size was calculated with the formula: length×width×height×½.

[3] = system: OPM2 human multiple myeloma cells; assay: huN901-DM1 and bortezomib in established subcutaneous OPM2 multiple myeloma xenografts; settings: SCID mice
From the text: as §1
The anti-tumor effect of a combination of huN901-DM1 and bortezomib (Velcade, Millennium Pharmaceuticals) was evaluated in an established subcutaneous xenograft model of multiple myeloma. SCID mice (36 animals) were inoculated with OPM2 human multiple myeloma cells (1×10^7 cells/animal) injected subcutaneously into the right shoulder of the mice. […] Two groups of mice were treated with the single agent huN901-DM1 at DM1 doses of 100 μg/kg and 200 μg/kg, respectively (day 12 post tumor cell inoculation) administered intravenously. A third group of mice was treated with the single agent bortezomib at a dose of 1 mg/kg (days 13 and 16 post tumor cell inoculation), administered intravenously. Two groups were treated with combinations of huN901-DM1 (100 μg/kg or 200 μg/kg) plus bortezomib using the same doses, schedules and administration routes used for single agent treated groups. A control group of animals received PBS administered intravenously (day 12 post tumor cell inoculation). Tumor growth was monitored by measuring tumor size twice per week. Tumor size was calculated with the formula: length×width×height×½.

[4] = system: H929 human multiple myeloma cells; assay: huN901-DM1 and bortezomib in H929 multiple myeloma large tumor xenografts; settings: for activity according to NCI standards: huN901-DM1 50 μg/kg, bortezomib 0.5 mg/kg, as single agents or combined
Procedure: as §1
The anti-tumor effect of a combination of huN901-DM1 and bortezomib was evaluated in an established subcutaneous xenograft model of multiple myeloma. SCID mice (54 animals) were inoculated with H929 human multiple myeloma cells (1×10^7 cells/animal) injected subcutaneously into the right shoulder of the mice. […] Two groups of mice were treated with the single agent huN901-DM1 at DM1 doses of 50 μg/kg and 100 μg/kg, respectively (day 34 post tumor cell inoculation) administered intravenously. Two groups of mice were treated with the single agent bortezomib at a 0.5 mg/kg low dose and 1 mg/kg high dose (days 35 and 38 post tumor cell inoculation) administered intravenously. Four combination groups were evaluated, with combinations of each dose of huN901-DM1 plus low- or high-dose bortezomib using the same schedules used for single agent treated groups. A control group of animals received PBS administered intravenously (day 34 post tumor cell inoculation). Tumor growth was monitored by measuring tumor size twice per week. Tumor size was calculated with the formula: length×width×height×½.

[5] = system: MOLP-8 human multiple myeloma cells; settings: Balb/c nude mice; huN901-DM1 200 μg/kg DM1 i.v. single injection day 22; melphalan 12 mg/kg i.p. single injection day 23; combination same doses
From the text: as §1, §2

[6] = system: MOLP-8 human multiple myeloma cells; assay: Triple combination huN901-DM1, lenalidomide plus low-dose dexamethasone in MOLP-8 xenografts
Procedure: Lenalidomide (100 mg/kg, qd×5×2) was administered at days 1-5 and 8-12. […]
as §1
The anti-tumor effect of a triple-combination of huN901-DM1 and lenalidomide plus low-dose dexamethasone was evaluated in an established subcutaneous xenograft model of multiple myeloma. SCID mice were inoculated with MOLP-8 human multiple myeloma cells (1.5×10^7 cells/animal) injected subcutaneously into the right shoulder of the mice. […] Treatments were initiated on day 13 post inoculation, indicated as day 1 of treatment. […] A second group of mice was treated with the combination of lenalidomide/low-dose dexamethasone (lenalidomide at 100 mg/kg, administered as a suspension in 1% carboxymethylcellulose/PBS by intraperitoneal injection on days 1-5, 8-12; dexamethasone at 1.5 mg/kg, administered by subcutaneous injection on days 1 and 8). A third group was treated with the triple-combination of huN901-DM1 plus lenalidomide/dexamethasone using the same doses, schedules and administration routes used for individual treatment groups. A control group of animals received PBS administered intravenously (days 1 and 8). Tumor growth was monitored by measuring tumor size twice per week. Tumor size was calculated with the formula: length×width×height×½.

[7] = bortezomib single agent, high dose 1.0 mg/kg
[8] = huN901-DM1 200 μg/kg, lenalidomide 100 mg/kg

Nc1cccc2c1CN(C1CCC(=O)NC1=O)C2=O (stereo not shown) [lenalidomide, reference compound]
LCK [1]: 0.9
T/C [1]: 28%

O=C1CCC(N2C(=O)c3ccccc3C2=O)C(=O)N1 (stereo not shown) [thalidomide, reference compound]
activity according to NCI standards [2]: inactive

CC(C)C[C@H](NC(=O)[C@H](Cc1ccccc1)NC(=O)c1cnccn1)B(O)O [bortezomib]
tumor-free mice at day 91 ([3]; bortezomib single agent 1 mg/kg i.v. days 13 and 16): no tumor-free mice
T/C [4, 7]: 11%
activity [4, 7]: active
tumor-free mice at day 119 [4, 7]: 1 of 6
activity according to NCI standards [4]: inactive

N[C@@H](Cc1ccc(N(CCCl)CCCl)cc1)C(=O)O [melphalan, reference compound]
tumor growth delay [5]: 14 days

B1: huN901-DM1: humanized antibody N901-maytansinoid conjugate (huN901-DM1); N901 binds to CD56 (conjugate, chains of the INN, looked up)
VH: QVQLVESGGGVVQPGRSLRLSCAASGFTFSSFGMHWVRQAPGKGLEWVAYISSGSFTIYYADSVKGRFTISRDNSKNTLYLQMNSLRAEDTAVYYCARMRKGYAMDYWGQGTLVTVSS
VL: DVVMTQSPLSLPVTLGQPASISCRSSQIIIHSDGNTYLEWFQQRPGQSPRRLIYKVSNRFSGVPDRFSGSGSGTDFTLKISRVEAEDVGVYYCFQGSHVPHTFGQGTKVEIK
modifications: DM1 maytansinoid conjugate
tumor growth delay [5]: 11 days
activity according to NCI standards [2]: inactive
tumor-free mice at day 91 ([3]; huN901-DM1 100 μg/kg i.v. day 12, alone or plus bortezomib 1 mg/kg i.v. days 13 and 16): 1 of 6
tumor-free mice at day 91 ([3]; huN901-DM1 200 μg/kg i.v. day 12, alone or plus bortezomib 1 mg/kg i.v. days 13 and 16): 3 of 6
activity according to NCI standards [4]: inactive
LCK [1]: 0.9
T/C [1]: 26%
activity [1, 8]: active
tumor-free mice at the end of the study [1, 8]: no tumor-free survivors
activity ([6]; MOLP-8 tumors, doses as in Example 7): active
T/C ([6]; SCID mice, huN901-DM1 150 ng/kg, qw×2 i.v., lenalidomide 100 mg/kg i.p. days 1-5, 8-12, dexamethasone 1.5 mg/kg s.c. days 1 and 8): 33%
LCK ([6]; SCID mice, huN901-DM1 150 μg/kg, qw×2 i.v., lenalidomide 100 mg/kg i.p. days 1-5, 8-12, dexamethasone 1.5 mg/kg s.c. days 1 and 8): 0.5
regressions ([6]; huN901-DM1 alone or lenalidomide/dexamethasone groups): no regressions
